Data: the supplement of paper PMC9112550, “Optimization of the antimicrobial peptide Bac7 by deep mutational scanning” (BMC Biology, 2022)

System: Escherichia coli TOP10
Test: shrunken log2 fold change of peptide-encoding DNA abundance (4.5 h post-induction vs induction); higher = less antimicrobial activity (less host growth inhibition)
Conditions: time post-induction: 4.5 h; library: site-saturation at positions 5, 18, 19, 20
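Further: peptides expressed intracellularly from a pBAD plasmid library in pooled LB shake-flask culture, induced with 0.3% L-arabinose, DNA abundance read by NGS, three biological replicates, DESeq2 with apeglm shrinkage.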

Sequence | shrunken log2 fold change
RRIRPRPPRLPRPRPRPKYHPRP | -0.317
RRIRTRPPRLPRPRPRPFNCPRP | -0.038
RRIRERPPRLPRPRPRPNRSPRP | -0.0779
RRIRNRPPRLPRPRPRPMWNPRP | -0.294
RRIRMRPPRLPRPRPRPDNSPRP | -0.071
RRIRCRPPRLPRPRPRPGWTPRP | 0.0289
RRIRCRPPRLPRPRPRPWTIPRP | -0.0777
RRIRKRPPRLPRPRPRPHHRPRP | -0.0531
RRIRARPPRLPRPRPRPYHCPRP | -0.0366
RRIRVRPPRLPRPRPRPYAFPRP | -0.0621
RRIRPRPPRLPRPRPRPCYDPRP | -0.165
RRIRQRPPRLPRPRPRPDKAPRP | 0.517
RRIRMRPPRLPRPRPRPRIRPRP | 0.79
RRIRARPPRLPRPRPRPKRMPRP | 0.258
RRIRGRPPRLPRPRPRPSTDPRP | 0.899
RRIRCRPPRLPRPRPRPAYKPRP | -0.093
RRIRWRPPRLPRPRPRPTMDPRP | 0.156
RRIRFRPPRLPRPRPRPMYMPRP | -0.183
RRIRFRPPRLPRPRPRPGMRPRP | 0.44
RRIRFRPPRLPRPRPRPFPVPRP | -0.0374
RRIRHRPPRLPRPRPRPHVDPRP | 0.0392
RRIRARPPRLPRPRPRPNWYPRP | -0.245
RRIRHRPPRLPRPRPRPCVDPRP | -0.184

Sequence | shrunken log2 fold change
RRIRMRPPRLPRPRPRPENKPRP | 1.48
RRIRHRPPRLPRPRPRPFYRPRP | -0.0975
RRIRQRPPRLPRPRPRPLSVPRP | -0.539
RRIRRRPPRLPRPRPRPGWMPRP | 0.0476
RRIRRRPPRLPRPRPRPAQMPRP | 0.161
RRIRYRPPRLPRPRPRPGGTPRP | -0.0623
RRIRTRPPRLPRPRPRPKSYPRP | -0.364
RRIRRRPPRLPRPRPRPVRYPRP | 0.181
RRIRSRPPRLPRPRPRPNPSPRP | -0.00593
RRIRMRPPRLPRPRPRPAKDPRP | 0.042
RRIRQRPPRLPRPRPRPEGPPRP | 0.172
RRIRWRPPRLPRPRPRPEDEPRP | 0.0692
RRIRCRPPRLPRPRPRPSRDPRP | 0.189
RRIRNRPPRLPRPRPRPGNRPRP | -0.0775
RRIRPRPPRLPRPRPRPATMPRP | 0.0647
RRIRKRPPRLPRPRPRPAVQPRP | 0.195
RRIRARPPRLPRPRPRPQRAPRP | 1.26
RRIRQRPPRLPRPRPRPPRGPRP | 2.1
RRIRHRPPRLPRPRPRPCHFPRP | -0.0384
RRIRIRPPRLPRPRPRPSKTPRP | 0.0676
RRIRCRPPRLPRPRPRPPDCPRP | 0.177
RRIRLRPPRLPRPRPRPHYSPRP | -0.246
RRIRNRPPRLPRPRPRPGSWPRP | 0.257

Sequence | shrunken log2 fold change
RRIRSRPPRLPRPRPRPRPCPRP | 0.137
RRIRLRPPRLPRPRPRPYGVPRP | -0.107
RRIRFRPPRLPRPRPRPTCFPRP | -0.157
RRIRQRPPRLPRPRPRPAFDPRP | -0.094
RRIRYRPPRLPRPRPRPTDMPRP | 0.00219
RRIRWRPPRLPRPRPRPWLYPRP | -0.128
RRIRFRPPRLPRPRPRPIWEPRP | -0.0122
RRIRGRPPRLPRPRPRPTKLPRP | 0.38
RRIRTRPPRLPRPRPRPIMIPRP | -0.163
RRIRPRPPRLPRPRPRPFAAPRP | 0.227
RRIRIRPPRLPRPRPRPNFSPRP | -0.26
RRIRARPPRLPRPRPRPVKGPRP | -0.00146
RRIRPRPPRLPRPRPRPQNMPRP | -0.358
RRIRCRPPRLPRPRPRPSALPRP | -0.0403
RRIRARPPRLPRPRPRPWLQPRP | -0.0599
RRIRARPPRLPRPRPRPMMTPRP | 0.331
RRIRKRPPRLPRPRPRPDAYPRP | 1.82
RRIRIRPPRLPRPRPRPGGLPRP | -0.16
RRIRDRPPRLPRPRPRPWISPRP | -0.00776
RRIRTRPPRLPRPRPRPEQSPRP | 0.0803
RRIRVRPPRLPRPRPRPEYTPRP | -0.0361
RRIRFRPPRLPRPRPRPEDFPRP | 0.0568
RRIRYRPPRLPRPRPRPPAFPRP | -0.242

Sequence | shrunken log2 fold change
RRIRTRPPRLPRPRPRPYYYPRP | -1.2
RRIRCRPPRLPRPRPRPVFCPRP | -0.131
RRIRERPPRLPRPRPRPLADPRP | -0.14
RRIRHRPPRLPRPRPRPCSQPRP | -0.00141
RRIRERPPRLPRPRPRPPFSPRP | -0.241
RRIRWRPPRLPRPRPRPCLCPRP | -0.0914
RRIRKRPPRLPRPRPRPMTVPRP | 0.0686
RRIRPRPPRLPRPRPRPHGNPRP | -0.654
RRIRGRPPRLPRPRPRPPCFPRP | 0.456
RRIRLRPPRLPRPRPRPVLNPRP | -0.325
RRIRNRPPRLPRPRPRPVRAPRP | 0.545
RRIRQRPPRLPRPRPRPIQYPRP | -0.151
RRIRNRPPRLPRPRPRPEKFPRP | -0.165
RRIRHRPPRLPRPRPRPYTNPRP | -0.461
RRIRSRPPRLPRPRPRPSDLPRP | -0.254
RRIRFRPPRLPRPRPRPYADPRP | -0.0222
RRIRPRPPRLPRPRPRPGFRPRP | 0.138
RRIRIRPPRLPRPRPRPNHYPRP | -0.492
RRIRPRPPRLPRPRPRPQRQPRP | 0.109
RRIRKRPPRLPRPRPRPWAFPRP | -0.016
RRIRTRPPRLPRPRPRPASSPRP | -0.362
RRIRERPPRLPRPRPRPDAGPRP | -0.0396
